For test [1], the target named is T1, full-length human PDGFRB on cells (human, UniProt P09619 33-1106).
T1 construct: whole, on cells; also called hPDGFRB; SCC-hPDGFRB
Nature of the test: binding assay on cells transgenically expressing human PDGFRB, FIG. 15C.

The target of test [2] is T2, recombinant human extracellular domain of IGF2R (human, UniProt P11717 41-2304).
T2 construct: extracellular domain; Recombinant, immobilized on plates; also called hIGF2R-ECD; human IGF2R ectodomain (ECD)
Nature of the test: competition assay on immobilized hIGF2R-ECD, competitor for 13F11-A647. As to the method:
Biparatopic VHH constructs contain two VHH which bind to a different epitope, i.e. which are non-competitive binders. To identify (a) pair(s) of non-competitive binders, competition assays were performed. In the example shown, an Alexa fluor-conjugate of the high affine VHH 13F11 was used as the reporter VHH (13F11-A647, see example 10.2). In the assay, a non-saturating amount (10 nM) of 13F11-A647 was incubated with immobilized hIGF2R-ECD in the presence or absence of 250 nM unconjugated competitor VHH to allow competition to take place.

The target in test [3] is T3, recombinant hPDGFRB ectodomain (human, UniProt P09619 33-532).
T3 construct: extracellular domain; also called hPDGFRB-ECD; human PDGFRB ECD
Nature of the test: competition ELISA on human PDGFRB ECD, IRDye800-SP26P as reporter and unconjugated SP26P as competitor. (ELISA stands for enzyme-linked immunosorbent assay.)

Test [4] concerns the target T4, human serum albumin (human, UniProt P02768 25-609).
T4 construct: also called HSA
Nature of the test: binding assay of the IRDye800 conjugate on serum albumin.

Test [5] concerns the target T5, rat serum albumin (rat, UniProt P02770 25-608).
T5 construct: also called RSA
Described as above.

Test [6] addresses T6, mouse serum albumin (mouse, UniProt P07724 25-608).
T6 construct: also called MSA
The description is as above.

Test [7] deals with T7, human IGF2R on cells (human, UniProt P11717 41-2491). Nature of the test: cell-based or functional assay.
The target of test [8] is T8, rat IGF2R on cells (rat, UniProt A0A8I6GLL6 43-2479). Nature of the test: cell-based or functional assay.
For test [9], the target named is T2, recombinant human extracellular domain …. Nature of the test: direct binding assay of the Alexa Fluor 647 conjugate on hIGF2R-ECD, one-site specific binding fit. The protocol:
(§1) These conjugates were then subjected to direct binding assays on immobilized hIGF2R-ECD, meaning that plates were read out immediately after washing, without additional detection steps. […] For detailed analysis, binding parameters KD and Bₘₐₓ were calculated in Graphpad (version 8.3), using one-site specific binding analysis (FIG. 8D).
Based on their high affinity and binding to non-overlapping receptor epitopes, VHHs 13F11 and 13E8 were selected for the design of biparatopic and bivalent VHH constructs. Two VHHs were fused with a flexible linker, consisting of three Gly-Gly-Gly-Gly-Ser repeats (FIG. 8A). The sequences were codon optimized for expression in E. coli and obtained as synthesized DNA fragments from GeneArt. The DNA fragments encoding VHHs were cloned into a vector pET28-based vector introducing a C-terminal free cysteine for site-directed conjugation and His6 tag for IMAC purification (FIG. 8A). The VHH constructs were produced and purified as described in example 4. […] In a similar binding assay, IR dye 800 (IRD800) conjugates were prepared (as outlined in example 10.2) of the monomeric VHHs 13F11 and 13E8, the biparatopic VHH construct 13F11-13E8, the reciprocal biparatopic construct 13E8-13F11, the bivalent VHH construct 13F11-13F11, and the non-binding (control-) VHH R2. Conjugated constructs were then subjected to binding assay as described above.

Test [10] has as its target T9, murine IGF2R on cells (murine, UniProt Q07113 36-2483).
T9 construct: whole, on cells; also called mIGF2R
Nature of the test: binding assay on SCC cells transgenically expressing murine IGF2R. As to the method:
(§2) To examine whether 13F11-13E8 is cross-reactive against rodent IGF2R, the construct as well as its corresponding monomeric VHHs were conjugated to IRDye800CW (F11E8-IRD800, conjugation method as described in example 10.2) and the binding affinity was determined using a binding assay on SCC cells that transgenically expressed either murine IGF2R (mIGF2R), rIGF2R, or hIGF2R (FIGS. 12A-D).

For test [11], the target named is T7, human IGF2R on cells. Nature of the test: binding assay on SCC cells transgenically expressing human IGF2R. The protocol:
as §2

Test [12] has as its target T8, rat IGF2R on cells. Nature of the test: binding assay on SCC cells transgenically expressing rat IGF2R. The protocol:
as §2

The target of test [13] is T2, recombinant human extracellular domain …. Nature of the test: direct binding assay of the fluorescent conjugate on immobilized hIGF2R-ECD, one-site specific binding fit. The protocol: as §1
For test [14] the target is unchanged. Nature of the test: binding assay on immobilized hIGF2R-ECD, detection with anti-VHH antibody. As to the method: The 15 unique hIGF2R-binding VHH (Example 2.1, FIG. 2) were produced and purified as described in examples 3 and 4. The apparent affinities were determined through binding assay on immobilized hIGF2R-ECD. Briefly, three-fold serial dilution series, starting from 1 μM, of each VHH were plated onto hIGF2R-ECD coated plates. VHH were allowed to bind for two hours after which plates were washed. Then, bound VHH was detected using a VHH-specific IgG antibody, followed by an IRD800CW-conjugated IgG-specific antibody. Plates were read out by fluorimetry.

Residue numbers refer to the chain shown, from its start.

Consider eleven molecules from patent publication US20240325562A1 (LINXIS B V, published 2024).

As a reminder, the Kd is the equilibrium constant for the complex coming apart.

T6 sequence (P07724 25-608 limits assumed): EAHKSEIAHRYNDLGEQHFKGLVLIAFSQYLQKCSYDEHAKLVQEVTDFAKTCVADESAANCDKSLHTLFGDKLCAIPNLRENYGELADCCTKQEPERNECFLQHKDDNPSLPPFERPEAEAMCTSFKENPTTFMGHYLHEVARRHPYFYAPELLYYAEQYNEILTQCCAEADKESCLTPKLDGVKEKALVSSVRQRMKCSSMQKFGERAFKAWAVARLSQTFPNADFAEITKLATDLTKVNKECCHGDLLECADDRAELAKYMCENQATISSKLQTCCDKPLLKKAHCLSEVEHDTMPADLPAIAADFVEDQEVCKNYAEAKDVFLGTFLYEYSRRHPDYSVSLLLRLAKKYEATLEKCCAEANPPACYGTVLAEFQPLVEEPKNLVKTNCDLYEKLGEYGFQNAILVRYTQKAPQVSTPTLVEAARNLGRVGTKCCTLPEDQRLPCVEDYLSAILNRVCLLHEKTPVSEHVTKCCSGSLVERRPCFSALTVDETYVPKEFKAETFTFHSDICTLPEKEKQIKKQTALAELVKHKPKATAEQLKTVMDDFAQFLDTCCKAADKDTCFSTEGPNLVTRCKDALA
T1 sequence (P09619 33-1106): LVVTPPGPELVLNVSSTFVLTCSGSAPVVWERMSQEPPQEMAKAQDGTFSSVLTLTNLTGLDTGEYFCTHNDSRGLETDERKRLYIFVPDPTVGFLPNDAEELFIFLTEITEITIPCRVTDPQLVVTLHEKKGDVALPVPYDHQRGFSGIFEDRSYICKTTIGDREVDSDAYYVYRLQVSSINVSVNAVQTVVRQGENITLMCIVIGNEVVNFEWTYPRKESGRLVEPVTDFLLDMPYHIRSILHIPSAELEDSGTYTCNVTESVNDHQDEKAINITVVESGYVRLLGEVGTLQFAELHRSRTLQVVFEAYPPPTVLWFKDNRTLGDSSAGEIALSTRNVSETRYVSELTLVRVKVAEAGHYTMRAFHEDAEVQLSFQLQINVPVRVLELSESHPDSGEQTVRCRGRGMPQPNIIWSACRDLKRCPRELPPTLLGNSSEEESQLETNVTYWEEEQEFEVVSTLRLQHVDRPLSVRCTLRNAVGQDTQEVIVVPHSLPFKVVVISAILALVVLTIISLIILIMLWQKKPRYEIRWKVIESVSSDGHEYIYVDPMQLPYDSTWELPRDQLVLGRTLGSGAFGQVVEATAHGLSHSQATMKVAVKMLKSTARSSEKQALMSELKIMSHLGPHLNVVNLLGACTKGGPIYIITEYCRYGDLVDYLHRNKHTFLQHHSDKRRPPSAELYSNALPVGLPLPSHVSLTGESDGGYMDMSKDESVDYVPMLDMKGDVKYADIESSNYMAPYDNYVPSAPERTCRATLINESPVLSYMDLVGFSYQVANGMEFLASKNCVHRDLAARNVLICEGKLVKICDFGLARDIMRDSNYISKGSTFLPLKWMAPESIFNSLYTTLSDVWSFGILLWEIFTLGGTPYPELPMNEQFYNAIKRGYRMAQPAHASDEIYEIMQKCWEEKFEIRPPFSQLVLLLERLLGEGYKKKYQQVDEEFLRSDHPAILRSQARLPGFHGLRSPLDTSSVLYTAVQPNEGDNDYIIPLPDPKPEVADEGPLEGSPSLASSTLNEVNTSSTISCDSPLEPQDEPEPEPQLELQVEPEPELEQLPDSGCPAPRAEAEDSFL
T3 sequence (P09619 33-532): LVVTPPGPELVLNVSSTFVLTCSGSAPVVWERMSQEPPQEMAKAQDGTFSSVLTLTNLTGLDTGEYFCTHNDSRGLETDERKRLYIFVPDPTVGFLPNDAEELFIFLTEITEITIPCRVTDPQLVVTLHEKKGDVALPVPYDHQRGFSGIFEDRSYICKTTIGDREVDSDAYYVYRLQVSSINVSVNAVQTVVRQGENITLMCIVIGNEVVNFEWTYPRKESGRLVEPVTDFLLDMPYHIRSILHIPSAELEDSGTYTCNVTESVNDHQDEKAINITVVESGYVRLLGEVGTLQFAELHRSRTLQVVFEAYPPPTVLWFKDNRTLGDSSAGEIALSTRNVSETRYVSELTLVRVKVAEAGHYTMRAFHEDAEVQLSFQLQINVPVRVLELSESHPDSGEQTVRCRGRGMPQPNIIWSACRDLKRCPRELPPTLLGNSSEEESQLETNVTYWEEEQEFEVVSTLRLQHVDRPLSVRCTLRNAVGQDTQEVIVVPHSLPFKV
T9 sequence (Q07113 36-2483): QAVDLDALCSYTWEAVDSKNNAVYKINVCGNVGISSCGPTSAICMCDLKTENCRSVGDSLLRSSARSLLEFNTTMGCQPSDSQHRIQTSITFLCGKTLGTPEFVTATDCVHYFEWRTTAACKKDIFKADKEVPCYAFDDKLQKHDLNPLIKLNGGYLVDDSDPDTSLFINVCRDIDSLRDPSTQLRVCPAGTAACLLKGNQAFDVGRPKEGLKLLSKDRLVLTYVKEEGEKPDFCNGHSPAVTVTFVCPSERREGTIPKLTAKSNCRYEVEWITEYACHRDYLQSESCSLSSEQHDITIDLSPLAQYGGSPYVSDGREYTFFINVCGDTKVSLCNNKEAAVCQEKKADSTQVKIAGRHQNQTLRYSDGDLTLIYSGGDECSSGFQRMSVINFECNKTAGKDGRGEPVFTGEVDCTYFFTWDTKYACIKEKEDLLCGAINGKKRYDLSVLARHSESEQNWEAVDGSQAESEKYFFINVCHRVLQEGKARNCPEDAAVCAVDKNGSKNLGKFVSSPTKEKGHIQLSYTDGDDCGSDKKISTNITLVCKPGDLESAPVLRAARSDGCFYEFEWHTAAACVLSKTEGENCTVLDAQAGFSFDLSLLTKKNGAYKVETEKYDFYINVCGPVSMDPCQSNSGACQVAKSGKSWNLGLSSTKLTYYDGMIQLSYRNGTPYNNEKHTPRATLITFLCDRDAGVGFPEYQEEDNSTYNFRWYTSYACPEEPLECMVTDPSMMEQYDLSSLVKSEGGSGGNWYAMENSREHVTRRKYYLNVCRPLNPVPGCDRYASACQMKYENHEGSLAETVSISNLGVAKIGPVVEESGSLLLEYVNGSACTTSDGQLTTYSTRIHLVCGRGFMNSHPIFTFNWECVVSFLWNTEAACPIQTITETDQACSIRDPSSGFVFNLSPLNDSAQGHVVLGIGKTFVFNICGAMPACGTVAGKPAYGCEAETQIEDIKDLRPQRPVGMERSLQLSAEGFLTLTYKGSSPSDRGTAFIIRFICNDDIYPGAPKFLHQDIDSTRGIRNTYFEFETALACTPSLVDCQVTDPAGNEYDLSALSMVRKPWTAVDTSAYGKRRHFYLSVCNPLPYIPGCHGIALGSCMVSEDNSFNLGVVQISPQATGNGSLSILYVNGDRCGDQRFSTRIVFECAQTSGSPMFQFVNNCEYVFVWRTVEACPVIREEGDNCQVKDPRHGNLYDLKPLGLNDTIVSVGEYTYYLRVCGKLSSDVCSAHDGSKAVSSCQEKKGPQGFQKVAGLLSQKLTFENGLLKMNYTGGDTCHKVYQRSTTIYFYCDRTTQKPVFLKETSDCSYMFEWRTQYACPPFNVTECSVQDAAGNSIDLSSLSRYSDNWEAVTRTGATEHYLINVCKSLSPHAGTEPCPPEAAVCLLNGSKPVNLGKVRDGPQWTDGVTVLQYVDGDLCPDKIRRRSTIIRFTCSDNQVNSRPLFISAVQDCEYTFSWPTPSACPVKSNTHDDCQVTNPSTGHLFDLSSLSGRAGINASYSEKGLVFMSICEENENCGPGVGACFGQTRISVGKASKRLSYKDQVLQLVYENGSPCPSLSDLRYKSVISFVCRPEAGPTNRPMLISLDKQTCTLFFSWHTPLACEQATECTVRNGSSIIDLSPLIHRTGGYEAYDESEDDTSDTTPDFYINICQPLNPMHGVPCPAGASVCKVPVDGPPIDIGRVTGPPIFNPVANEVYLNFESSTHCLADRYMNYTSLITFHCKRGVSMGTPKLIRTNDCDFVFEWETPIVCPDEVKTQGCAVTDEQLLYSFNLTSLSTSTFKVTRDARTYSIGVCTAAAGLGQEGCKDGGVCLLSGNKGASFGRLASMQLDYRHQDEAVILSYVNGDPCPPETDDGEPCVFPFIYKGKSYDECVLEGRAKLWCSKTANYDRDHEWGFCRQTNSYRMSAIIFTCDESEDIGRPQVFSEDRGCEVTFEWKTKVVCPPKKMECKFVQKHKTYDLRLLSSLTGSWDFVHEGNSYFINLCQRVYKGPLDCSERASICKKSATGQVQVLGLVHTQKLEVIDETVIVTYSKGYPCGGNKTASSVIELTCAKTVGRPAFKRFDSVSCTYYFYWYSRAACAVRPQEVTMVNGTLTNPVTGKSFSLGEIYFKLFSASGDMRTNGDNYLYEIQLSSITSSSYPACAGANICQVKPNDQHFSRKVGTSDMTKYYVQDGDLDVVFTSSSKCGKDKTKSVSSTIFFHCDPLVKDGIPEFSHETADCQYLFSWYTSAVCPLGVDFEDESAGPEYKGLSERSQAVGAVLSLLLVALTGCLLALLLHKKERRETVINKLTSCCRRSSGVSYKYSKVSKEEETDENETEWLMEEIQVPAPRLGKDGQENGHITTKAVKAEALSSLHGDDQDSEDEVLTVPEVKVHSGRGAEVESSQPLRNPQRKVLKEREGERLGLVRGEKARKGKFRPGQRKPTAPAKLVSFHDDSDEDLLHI

B1: SP02P-SP26P (bispecific antibody, not shown: small tags and cut ends)
chain: EVQLVESGGGLVQAGGSLRLSCAASESISSIEQMGWFRQAPGKQRALVAINTYGGRTVYTNSVEGRFTMSRDSAKNMVYLQMTSLEPEDTAVYYCYAQTTAWRGGVWGQGTQVTVSSGGGGSGGGGSGGGGSEVQLVESGGGLVQAGGSLRLSCAASGRSFSSSVMGWFRQTPGKEREFVAATRWTAASTHYADSVKGRFTISRDHAENAVFLQMNSLKPEDTAVYYCAAGNYLDTAQYRYNYWGQGTQVTVSS
notes: also called SP02-SP26P
B1 showed a Kd in [1] of under 5 nM.

B2: 13G10 (VHH)
VHH: EVQLVESGGGLVQAGGSLRLSCAASGLTFSSYTMAWYRQAPGKEREVVAAISSGDSIYHEDSVQGRFIISRDNAKNTVYLQMNSLKAEDTAVYYCRANGPGTYWGQGTQVTVSS
notes: On phage in the phage ELISA; purified from E. coli in the other assays
With B2, the binding result in [2] is “binds”.

B3: 13C11 (VHH)
VHH: B2 VHH with D61G
notes: as for B2
With B3, in [2], the binding result is on record as “binds”.

B4: SP26P (VHH)
VHH: EVQLVESGGGLVQAGGSLRLSCAASGRSFSSSVMGWFRQTPGKEREFVAATRWTAASTHYADSVKGRFTISRDHAENAVFLQMNSLKPEDTAVYYCAAGNYLDTAQYRYNYWGQGTQVTVSS
modifications: In the competition assay the reporter copy carried IRDye800 on the C-terminal cysteine, which is not in the letters.
notes: From libraries 3 and 4 (raised against rPDGFRB)
As to B4, the binding result in test [3] is recorded as “binds”.

B5: 13F11-13E8-ABD-IRD800 (other)
chain: EVQLVESGGRLVQPGDSLRLSCAASGRTFSDNAMGWFRQAPGKERRFVAGISWAGGSTYYSDSVKGRFTISRDNAKNTVYLQMNSLKPEDTAVYYCAAGLRAWVQRMPKDYNYWGQGTQVTVSSGGGGSGGGGSGGGGSEVQLVESGGGLVQAGGSLRLSCAASRSISPMGWYRQAPGKQRELVAIMPSSGPPIYADSVQGRFTISRDNAKNTVYLQMNSLKPEDTAVYYCNVGGGYWGQGTQVTVSSLAEAKVLANRELDKYGVSDYYKNLINNAKTVEGVKALIDEILAALP
In the case of B5, the results for the Kd in [4], in [5] and in test [6] were about 200 nM, 30 nM and about 200 nM, respectively.

B6: 13E8-13F11-IRD800 (bispecific antibody, not shown: small tags and cut ends)
chain: EVQLVESGGGLVQAGGSLRLSCAASRSISPMGWYRQAPGKQRELVAIMPSSGPPIYADSVQGRFTISRDNAKNTVYLQMNSLKPEDTAVYYCNVGGGYWGQGTQVTVSSGGGGSGGGGSGGGGSEVQLVESGGRLVQPGDSLRLSCAASGRTFSDNAMGWFRQAPGKERRFVAGISWAGGSTYYSDSVKGRFTISRDNAKNTVYLQMNSLKPEDTAVYYCAAGLRAWVQRMPKDYNYWGQGTQVTVSS
modifications: IRDye 800CW coupled by maleimide to the C-terminal free cysteine, which is not in the letters
Consider B6, for which the “endocytic rate constant, ke” value was about 1.5 min⁻¹ in test [7] and about 0.7 min⁻¹ in [8].

B7: 13E8-13F11-A647 (bispecific antibody)
chain: B6 chain
modifications: Alexa Fluor 647 coupled by maleimide to the C-terminal free cysteine, which is not in the letters
notes: Biparatopic tandem VHH, reciprocal order; not shown: C-terminal tail: free Cys, possible thrombin site and His6 tag
For the molecule B7, in test [9], the Kd was 2.5 nM.

B8: 13F11-13E8-IRD800 (bispecific antibody)
chain: EVQLVESGGRLVQPGDSLRLSCAASGRTFSDNAMGWFRQAPGKERRFVAGISWAGGSTYYSDSVKGRFTISRDNAKNTVYLQMNSLKPEDTAVYYCAAGLRAWVQRMPKDYNYWGQGTQVTVSSGGGGSGGGGSGGGGSEVQLVESGGGLVQAGGSLRLSCAASRSISPMGWYRQAPGKQRELVAIMPSSGPPIYADSVQGRFTISRDNAKNTVYLQMNSLKPEDTAVYYCNVGGGYWGQGTQVTVSS
modifications: IRDye 800CW coupled by maleimide to the C-terminal free cysteine, which is not in the letters
notes: Biparatopic tandem VHH; also called F11E8-IRD800; IRDye800-conjugated 13F11-13E8 (F11E8); not shown: C-terminal tail: free Cys, possible thrombin site and His6 tag
With B8, the Kd in test [10], in test [11] and in test [12] was under 10 nM in each case. In addition, the “endocytic rate constant, ke” value in [7] was about 1.5 min⁻¹; in [8] it was about 0.7 min⁻¹.

B9: 13F11-13E8-A647 (bispecific antibody)
chain: B8 chain
modifications: Alexa Fluor 647 coupled by maleimide to the C-terminal free cysteine, which is not in the letters
notes: Biparatopic tandem VHH; not shown: C-terminal tail: free Cys, possible thrombin site and His6 tag
On to B9, for which the Kd in test [9] worked out at 2.5 nM.

B10: 13F11-A647 (VHH)
VHH: EVQLVESGGRLVQPGDSLRLSCAASGRTFSDNAMGWFRQAPGKERRFVAGISWAGGSTYYSDSVKGRFTISRDNAKNTVYLQMNSLKPEDTAVYYCAAGLRAWVQRMPKDYNYWGQGTQVTVSS
modifications: Alexa Fluor 647 is coupled by maleimide chemistry to the C-terminal free cysteine of the expression tail. The dye, that cysteine and the tag are not in the letters.
notes: Fluorescent conjugate of monomeric 13F11; also called labelled 13F11
For B10, the Kd in test [13] was found to be 1 nM.

B11: 13F11 (VHH)
VHH: B10 VHH
notes: On phage in the phage ELISA; purified from E. coli in the other assays; also called native 13F11; unconjugated 13F11
As to B11, in test [14], the Kd stood at 0.23 nM.
